Measured values reported in publication PMC2993938, “Characterization of an Antennal Carboxylesterase from the Pest Moth Spodoptera littoralis Degrading a Host Plant Odorant” (PLoS ONE, 2010).

Substrate: CC/C=C\CCOC(C)=O
Assay: GC quantification of (Z)-3-hexenol formed, nonlinear regression
Assay type: biochemical, Spodoptera littoralis
Conditions: 20 mM Tris pH 7.4 and 28 °C (stated for the hydrolysis assay), 5 min incubation, 1 mM to 20 mM substrate, no detergent

B1: SlCXE10 (Spodoptera littoralis) (protein)
chain: MVQVRVSEGVLEGEQVQNEYGGSFYRFRGIPYAQPPLGDLRFKAPQPIKPWQGVRQAKQFGSVCYQYNPTNLGLSNMSEDCLYVNVYTPDIKPQTPIPVMVWIHGGGFMWGSGNDDLYGPEFLIRHNVVLVTFNYRLEALGFLCLDTADVPGNAGMKDQVAALRWVKRNIANFGGNPDNITIFGESAGGGSVSHHLISPMSKGLFNRAIPQSGSTACFWATAFEPKEKAILLAKQLGFHSEDPKELYEFFKKQPCENLVKLNLQVTTSQKSYEIHFSIANEKDFGQERFFYGDIVDVIKNNLQEGVDIMTGYTKDEYTIAVSIGGPLEDILAKAQRYREFFAPKLLHNYGTITDQLEAARKLQKFYFKNEKVSKDNIDNLLNYMSVDMFVYGVMFAAKLYSRKNKVYVYKFNCFSERNVLANAFCVGHLTDDRSVVSHADDLAYLFPVKLFTQKVNKTSVTFKLIDRVTTLWTNFAKYGNPTPDDSLGVKWLPYTLAAQDYMDIGNTLVPGNSPDKEELDFWESVLHQHLPKFSTLNQ
notes: complete ORF (no signal peptide), C-terminal 6His tag kept (pBlueBac4.5/V5-His TOPO), baculovirus / Sf21 cells, Ni-NTA purified, about 60 kDa (predicted 61 kDa)
B1 showed a Km of 11.4 ± 4.8 mM.
